Assay results reported in publication PMC7867654.

B1: 48 bp LHX6 (dsDNA)
DNA 1: GCGCTAGGAGCATCCGCCCGCTCGACGCGCGCCGGGAAATTGAAGCGG
DNA 2: CCGCTTCAATTTCCCGGCGCGCGTCGAGCGGGCGGATGCTCCTAGCGC
B2: 24 bp LHX6 (dsDNA)
DNA 1: ACGCGCGCCGGGAAATTGAAGCGG
DNA 2: CCGCTTCAATTTCCCGGCGCGCGT
B3: 36 bp ATrich (dsDNA)
DNA 1: TATATAAATTAATATATAATTATATTATATTAAAAT
DNA 2: ATTTTAATATAATATAATTATATATTAATTTATATA
B4: 96 bp ATrich (dsDNA)
DNA 1: TATATTTTATATATATATAAATTAATATATAATTATATTATATTAAAATTAATATTATATTTAAATTATTATATATATATAAATAATTTAATTATA
DNA 2: TATAATTAAATTATTTATATATATATAATAATTTAAATATAATATTAATTTTAATATAATATAATTATATATTAATTTATATATATATAAAATATA
B5: 48 bp ATrich (dsDNA)
DNA 1: ATATTTTATATATATATAAATTAATATATAATTATATTATATTAAAAT
DNA 2: ATTTTAATATAATATAATTATATATTAATTTATATATATATAAAATAT
B6: 96 bp (dsDNA)
DNA 1: TGAATTAGTGTCAATATCCCTACTTCAATTTCCTAGTATATATTAAGTAGGTAGATGCTCCTAGTACTCTGGGTTTTATTTTCTCAACCACCACCA
DNA 2: TGGTGGTGGTTGAGAAAATAAAACCCAGAGTACTAGGAGCATCTACCTACTTAATATATACTAGGAAATTGAAGTAGGGATATTGACACTAATTCA
B7: 36 bp LHX6 (dsDNA)
DNA 1: TCCGCCCGCTCGACGCGCGCCGGGAAATTGAAGCGG
DNA 2: CCGCTTCAATTTCCCGGCGCGCGTCGAGCGGGCGGA
B8: 24 bp ATrich (dsDNA)
DNA 1: TATATAATTATATTATATTAAAAT
DNA 2: ATTTTAATATAATATAATTATATA
B9: 12 bp GC (dsDNA)
DNA 1: GGGCGGCCGCCC
DNA 2: GGGCGGCCGCCC

Experiments:
Experiment in all cases: EMSA
[1] = target: PRC2-AEBP2 (PRC2.2, 5-mer) (Homo sapiens, UniProt Q15910-2;O75530;Q15022;Q09028;Q6ZN18 1-751;1-441;1-739;1-425;1-517)
[2] = target: T1, PRC2-PHF19 (PRC2.1, 5-mer) (Homo sapiens, UniProt Q15910-2;O75530;Q15022;Q09028;Q5T6S3 1-751;1-441;1-739;1-425;1-580)
[3] = target: T1, PRC2-PHF19 (PRC2.1, 5-mer); remark: listed apart in the source

Row | Binder | binding result [1] | binding signal [2] | binding result [3]
1 | B1 | no binding | – | –
2 | B2 | no binding | ~5 fold tighter than 24 bp ATrich; weaker than 48 bp | –
3 | B3 | no binding | – | –
4 | B4 | – | – | binds
5 | B5 | no binding | – | –
6 | B6 | – | – | binds
7 | B7 | no binding | – | –
8 | B8 | no binding | ~5 fold weaker than 24 bp LHX6 | –
9 | B9 | – | – | no binding
